The series deals with the molecule itself. Kind of series: AUC.

B1: 2GS mGRFT (GRFT with GSGS inserted between Ser16 and Gly17) (natural protein)
chain: SLTHRKFGGSGGSPFSGSGSGLSSIAVRSGSYLDAIIIDGVHHGGSGGNLSPTFTFGSGEYISNMTIRSGDYIDNISFETNMGRRFGPYGGSGGSANTLSNVKVIQINGSAGDYLDSLDIYYEQY
Consider B1, for which binding was put at a Kd of 1.17 mM.

The term Kd denotes the free concentration of one partner at which half of the binding sites on the other are occupied at equilibrium, for simple one-to-one binding. A lower Kd goes with higher affinity.

The values are drawn from article PMC3399781 (Structure (London, England : 1993), 2010).
